# Assay: soluble on expression in E. coli; label from the status in PepcDB or PDB records
row,Sequence,soluble on expression in E. coli
1,MPLALAQLQDIGDRITDRLRPWSRSAEFWVRAADIYTSYKVAPPDPVPLLHWLVCQLRAGFVKDEEEREAMWEQQHELGAQKMYSLCSELGGLFLKEAAQILGKPDLAPMAWVKRLVTLCDNAPATPIDVVRDVVEKQFGKSFDDIFECFDVEPVGSASIAQVHRARLKLSKTDVAVKVQHPGAEKLMMVDIRNMQAFALFLQKYDINFDLYSATKEMEKQICYEFDFVREAKAMERIREFLRVTNKKKPPVIVPRVIPEMVSREVLVMEFIEGTPIMNLGNEMAKRGIDPGGKIATMAKQKILTDLTLAYGQMILKDGFFHADPHPGNILICKNTEARLLFLFLFLAMVALLDYGQVKAMPEDLRLAYANLVIAMADDDFLRTKESFREIGIETWSIADNELEELFQLSLRMFDTRLPPGVTAMSPFAEDSSLNKVGVQNCLLNGVSILFFYLKSFPEELFSVLRTIQLLRGLTVGMGLRFSCAQQWKPIAEEALLKSGRLKDY,soluble
2,TPAGSFGLEFSFSYQKFTASFQPNYRRQTYSYSNTYEWHDANNVQNYLQLTYNQKTQLDYIEFPLFIRYDIISGAFKPFVQAGFYYAILNSATKQLNIEGVDHSGGTSRSFTEPVTIIGADDLFINSSIGAALGLGTSYKVGNIRLILDATYRMGLNNISNVQNRYISNSLSGAGDVSDDLKLNNITFSFGCLFPMKFLISPSHKAVD,not soluble
3,TSTMGNLQTAINDKSGTLASQNFLDADEQKRNAYNQAVSAAETILNKQTGPNTAKTAVEQALNNVNNAKHALNGTQNLNNAKQAAITAINGASDLNQKQKDALKAQANGAQRVSNAQDVQHNATELNTA,soluble
4,MSTSEKRKGMQTDMPELQAMISQRIQEQNYREVLKGVTAFPWCTDDPCVFRTAAGNLWIAVGHVNRKSEVPKFSYKNFLCAYLLGNAEDGVAAYLDLQAAAWKGVELVMFSSHADGLSALYGDGRANDRDLLYRFFGRNYVFAVGFRKKEEKEQASAGDKIFIASVDAVGFGEIDKDGKLAVINKIMSYEQFFDDEDLKPMWGALAVKLFILKCNGYRESAKDRKALDILLHDMMKLCKSMELTAGLDDQKRKHPESAGINPQMALLKNEAMVKVHNGMDEKVKSNLPLLEWAVNHLPAKLLQEFGTFVESVPQIKEPTAYDNLMSLESVLKEMDRLFKKAAEEENLSLTKNSMTDG,not soluble
5,MFSVRRYRHKRNSLNIDTREITLEPADNARLLSLCGPFDDNIKQLERRLGIEINRRDNHFKLTGRPICVTAATDILRSLYVDTAPMRGQTQDIEPEQIHLAIKEARVLEQSAESVPDYGKAINIKTKRGVIKPRTPNQAQYIANILDHDITFGVGPAGTGKTYLAVAAAVDALERQEIRRILLTRPAVEAGEKLGFLPGDLSQKVDPYLRPLYDALFEMLGFEKVEKLIERNVIEVAPLAYMRGRTLNDAFIILDESQNTTIEQMKMFLTRIGFNSKAVITGDVTQIDLPRNTKSGLRHAIEVLAEVDEISFNFFHSEDVVRHPVVARIVNAYEAWEEAEQKRKAALAAERKREAQEQEQK,not soluble
6,GSSHHHHHHSSGLVPRGSHMSVQNVVLFDTQPLTLMLGGKLSYINVAYQTYGTLNDEKNNAVLICHALTGDAEPYFDDGRDGWWQNFMGAGLALDTDRYFFISSNVLGGCKGTTGPSSINPQTGKPYGSQFPNIVVQDIVKVQKALLEHLGISHLKAIIGGSFGGMQANQWAIDYPDFMDNIVNLCSSIYFSAEAIGFNHVMRQAVINDPNFNGGDYYEGTPPDQGLSIARMLGMLTYRTDLQLAKAFGRATKSDGSFWGDYFQVESYLSYQGKKFLERFDANSYLHLLRALDMYDPSLGYENVKEALSRIKARYTLVSVTTDQLFKPIDLYKSKQLLEQSGVDLHFYEFPSDYGHDAFLVDYDQFEKRIRDGLAGN,soluble
7,SVLLSRELHPVAPLLDNLISALNKVYQRKGVNISMDISPEISFVGEQNDFVEVMGNVLDNACKYCLEFVEISARQTDDHLHIFVEDDGPGIPHSKRSLVFDRGQRADTLRPGQGVGLAVAREITEQYAGQIIASDSLLGGARMEVVFGRQHPTQKEE,soluble
8,MSLTENKELRDILGGYHDNIKSKIMENKLDEAIYLVDSLSATFKLPSSGYDRSSCTPYNNEVSEKYGIEEYVNASLIPTPRTLFIAAQNPKDEKRDVFTDLLMKSNTKLVVSLIDDPRYFEEEWLQDRKVIKYMNKDLFIDEIYNIRGRNIRRLRYINWVDFSVITREEMEVFHSYFDSVRTEVVLVHCIAGVGRTGTFIMYDILKRMENITLDTFIDVFLNLRSKRAHLVTNKIQLEFLKNIFLESEGHHHHHH,soluble

# From the DeepSol protein solubility set
